Experimental findings from patent US20240279318A1 (NANJING LEGEND BIOTECH, published 2024) are described below.

The labels stand for the following.
B1: AS170036 VL1VH1-57M98I108S (scFv)
scFv: QSALTQPRSVSGSPGQSVTISCAGTSSDVGSENYVSWYQQHPGKAPKLMIYQVNKRASGVPDRFSGSKSGNTASLTISGLQAEDEADYYCASYRSSDINIVFGGGTKLTVLGGGGSGGGGSGGGGSEVQLVESGGGLVQPGGSLRLSCAASGFTFSSYAMSWVRQAPGKGLEWVSTINSGTGMPYYADSVKGRFTISRDNSKNTLYLQMNSLRAEDTAVYYCAKNFFDGSWFLSPPAMDYWGQGTLVTVSSHHHHHH
notes: also called 81-AS170036 VL1VH1-57M98I108S
B2: AS170036 VL1VH1 HG56A (scFv)
scFv: B1 scFv with I98H, G182A, M183S, S234G
B3: AS170036 VL1VH1 HD102P (scFv)
scFv: B1 scFv with I98H, M183S, D228P, S234G
B4: AS170036 VL1VH1 HD102V (scFv)
scFv: B1 scFv with I98H, M183S, D228V, S234G
B5: AS170036 VL1VH1 HG56Q (scFv)
scFv: B1 scFv with I98H, G182Q, M183S, S234G
B6: AS170036 VL1VH1 HG56H (scFv)
scFv: B1 scFv with I98H, G182H, M183S, S234G
B7: AS170036 VL1VH1 HG108I (scFv)
scFv: B1 scFv with I98H, M183S, S234I
B8: AS170036 VL1VH1 HG56P (scFv)
scFv: B1 scFv with I98H, G182P, M183S, S234G
B9: AS170036 VL1VH1 HG56R (scFv)
scFv: B1 scFv with I98H, G182R, M183S, S234G
B10: AS170036 VL1VH1 HF101Y (scFv)
scFv: B1 scFv with I98H, M183S, F227Y, S234G
B11: AS170036 VL1VH1 HG56I (scFv)
scFv: B1 scFv with I98H, G182I, M183S, S234G
B12: AS170036 VL1VH1 HD102E (scFv)
scFv: B1 scFv with I98H, M183S, D228E, S234G
B13: AS170036 VL1VH1 HG108F (scFv)
scFv: B1 scFv with I98H, M183S, S234F
B14: AS170036 VL1VH1 HF101D (scFv)
scFv: B1 scFv with I98H, M183S, F227D, S234G
B15: AS170036 VL1VH1 HG56V (scFv)
scFv: B1 scFv with I98H, G182V, M183S, S234G
B16: AS170036 VL1VH1 HD102W (scFv)
scFv: B1 scFv with I98H, M183S, D228W, S234G
B17: AS170036 VL1VH1 HG56K (scFv)
scFv: B1 scFv with I98H, G182K, M183S, S234G
B18: AS170036 VL1VH1 HD102L (scFv)
scFv: B1 scFv with I98H, M183S, D228L, S234G
B19: AS170036 VL1VH1 HG56S (scFv)
scFv: B1 scFv with I98H, G182S, M183S, S234G
B20: AS170036 VL1VH1 HG56E (scFv)
scFv: B1 scFv with I98H, G182E, M183S, S234G
B21: AS170036 VL1VH1 HG108Q (scFv)
scFv: B1 scFv with I98H, M183S, S234Q
B22: AS170036 VL1VH1 HG108T (scFv)
scFv: B1 scFv with I98H, M183S, S234T
B23: AS170036 VL1VH1 HD102T (scFv)
scFv: B1 scFv with I98H, M183S, D228T, S234G
B24: AS170036 VL1VH1 HF101W (scFv)
scFv: B1 scFv with I98H, M183S, F227W, S234G
B25: AS170036 VL1VH1 HG56M (scFv)
scFv: B1 scFv with I98H, G182M, M183S, S234G
B26: AS170036 VL1VH1 HG108H (scFv)
scFv: B1 scFv with I98H, M183S, S234H
B27: AS170036 VL1VH1 HG108W (scFv)
scFv: B1 scFv with I98H, M183S, S234W
B28: AS170036 VL1VH1 HG56D (scFv)
scFv: B1 scFv with I98H, G182D, M183S, S234G
B29: AS170036 VL1VH1 HG108L (scFv)
scFv: B1 scFv with I98H, M183S, S234L
B30: AS170036 VL1VH1 HD102N (scFv)
scFv: B1 scFv with I98H, M183S, D228N, S234G
B31: AS170036 VL1VH1 HG56T (scFv)
scFv: B1 scFv with I98H, G182T, M183S, S234G
B32: AS170036 VL1VH1 HF106W (scFv)
scFv: B1 scFv with I98H, M183S, F232W, S234G
B33: AS170036 VL1VH1 HG56W (scFv)
scFv: B1 scFv with I98H, G182W, M183S, S234G
B34: AS170036 VL1VH1 HG56L (scFv)
scFv: B1 scFv with I98H, G182L, M183S, S234G
B35: AS170036 VL1VH1 HD102Q (scFv)
scFv: B1 scFv with I98H, M183S, D228Q, S234G
B36: AS170036 VL1VH1 HG108R (scFv)
scFv: B1 scFv with I98H, M183S, S234R
B37: AS170036 VL1VH1 HD102M (scFv)
scFv: B1 scFv with I98H, M183S, D228M, S234G
B38: AS170036 VL1VH1 HF101N (scFv)
scFv: B1 scFv with I98H, M183S, F227N, S234G
B39: AS170036 VL1VH1 HD102G (scFv)
scFv: B1 scFv with I98H, M183S, D228G, S234G
B40: AS170036 VL1VH1 HD102S (scFv)
scFv: B1 scFv with I98H, M183S, D228S, S234G
B41: AS170036 VL1VH1 HG108V (scFv)
scFv: B1 scFv with I98H, M183S, S234V
B42: AS170036 VL1VH1 HD102I (scFv)
scFv: B1 scFv with I98H, M183S, D228I, S234G
B43: AS170036 VL1VH1 HD102A (scFv)
scFv: B1 scFv with I98H, M183S, D228A, S234G
B44: AS170036 VL1VH1 HF101H (scFv)
scFv: B1 scFv with I98H, M183S, F227H, S234G

Residue numbers refer to the chain shown, from its start.

One test has as its target T1, AFP158/HLA-A*02:01 complex (human).
T1 construct: flowed as analyte in SPR
The test is described as follows: SPR, crude scFv captured, pMHC analyte.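 Note: complex injected at several concentrations over the chip, association phase then running buffer for dissociation, KD derived from on- and off-rates computed from both curves.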 A general note: Surface plasmon resonance follows binding to a sensor surface in real time, without labels.
As usually defined, the Kd is the constant that tells how readily two partners part at equilibrium. Read a low Kd as a tighter complex. A word on the koff: it is the rate constant with which the complex falls apart. Read a low koff as a long-lived complex. The kon is the second-order rate constant of association. A high value points to faster complex formation. In turn, B1 came in with a Kd of 21 nM, a koff of 0.0035 s⁻¹ and a kon of 170000 M⁻¹ s⁻¹.

For a further test, the target named is T2, AFP158/HLA-A*02:01 complex (human).
T2 construct: biotinylated on the BSP by BirA for ELISA and panning; also called biotinylated AFP158/HLA-A*02:01 complex; Bio-AFP158
Kind of test: SPR; vs AS170036 VL1VH1.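 Note: crude scFv captured on sensor chip, peptide–HLA complex flowed over at several concentrations, KD estimated from association and dissociation kinetic rates.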
Protocol: The experiment was carried out as follows. The crude scFv protein were captured onto the sensorchip. Different concentrations (320, 160, 40 nM) of AFP158/HLA-A*02:01 complex flowed over the sensorchip surface, and were allowed to bind the antibody fragment for 100 s followed by injection of the running buffer to allow dissociation of the complex. On-rate (kd) and off-rate (kd) were calculated based on association and dissociation curve, and were used to estimate the equilibrium dissociation constant (KD).
Turning to B2, the Affinity increase worked out at 1.4 fold.
The molecule B3 gave an Affinity increase of 0.3 fold.
In turn, B4 had an Affinity increase of 0.1 fold.
Molecule B5 gave an Affinity increase of 1 fold.
The molecule B6 returned an Affinity increase of 1.5 fold.
B7: the Affinity increase was 0.2 fold.
As for B8, the Affinity increase came to 0.1 fold.
Consider B9, for which the Affinity increase is 0.8 fold.
Regarding B10, the Affinity increase was determined as 1.1 fold.
B11 showed an Affinity increase of 0.2 fold.
Still for that read-out and setting: then B12, with 1.2 fold; and B13, with 0.3 fold; and B14, with 0.2 fold.
Turning to B15, the Affinity increase stood at 0.4 fold.
B16: the Affinity increase was determined as 0.1 fold.
The same measure, in the same setting: then B17, with 0.7 fold; and B18, with 0.1 fold; and B19, with 1.5 fold.
B20 came in with an Affinity increase of 1 fold.
As to B21, the Affinity increase amounted to 1.4 fold.
Molecule B22 yielded an Affinity increase of 0.5 fold.
The same measure, in the same setting: in the case of B23 it was 0.1 fold; in that of B24, 0.8 fold; in that of B25, 1.7 fold.
On the same count and under the same terms, then B26, with 0.4 fold.
For the molecule B27, the Affinity increase is 0.1 fold.
The molecule B28 gave an Affinity increase of 1 fold.
B29 showed an Affinity increase of 1.4 fold.
In turn, B30 gave an Affinity increase of 0.1 fold.
Consider B31, for which the Affinity increase stood at 0.7 fold.
Regarding B32, the Affinity increase came to 0.4 fold.
Turning to B33, the Affinity increase is 1.7 fold.
The molecule B34 displayed an Affinity increase of 0.8 fold.
As to B35, the Affinity increase is 0.2 fold.
B36 had an Affinity increase of 0.2 fold.
For the molecule B37, the Affinity increase turned out to be 0.3 fold.
In turn, B38 yielded an Affinity increase of 0.1 fold.
The molecule B39 came in with an Affinity increase of 0.1 fold.
B40 returned an Affinity increase of 0.4 fold.
The same measure, in the same setting: in the case of B41 it was 0.7 fold.
B42: the Affinity increase was found to be 0.1 fold.
Same read-out and setting: then B43, with 0.4 fold; and B44, with 0.3 fold.

Another test has as its target T2, AFP158/HLA-A*02:01 complex. The test is described as follows: SPR, crude scFv captured.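 Note: Peptide–MHC complex flowed at several concentrations over sensorchip-captured scFv, Kd derived from on- and off-rates obtained from the association and dissociation curves.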
B2 showed a Kd of 160 nM.
On the same count and under the same terms, then B3, with 880 nM; and B4, with 1800 nM; and B5, with 240 nM.
Still for that read-out and setting: then B6, with 150 nM.
Regarding B7, binding was characterised by a dissociation constant (Kd) of 1000 nM.
Still for that read-out and setting: then B8, with 1600 nM; and B9, with 300 nM.
On the same count and under the same terms, then B10, with 210 nM.
The molecule B11 showed a Kd of 1100 nM.
Molecule B12 gave a Kd of 190 nM.
B13 registered a dissociation constant (Kd) of 810 nM.
The molecule B14 returned a Kd of 1400 nM.
B15 showed a dissociation constant Kd of 630 nM.
Still for that read-out and setting: then B16, with 2200 nM.
Still for that read-out and setting: in the case of B17 it was 350 nM; in that of B18, 1700 nM; in that of B19, 160 nM.
With B20, binding was characterised by a dissociation constant (Kd) of 240 nM.
The same measure, in the same setting: in the case of B21 it was 200 nM.
Same read-out and setting: in the case of B22 it was 530 nM; in that of B23, 1800 nM; in that of B24, 300 nM.
B25 registered a dissociation constant Kd of 130 nM.
As for B26, the Kd came to 660 nM.
The molecule B27 showed a Kd of 2300 nM.
B28 came in with a Kd of 230 nM.
Still for that read-out and setting: in the case of B29 it was 200 nM.
The molecule B30 returned a Kd of 2500 nM.
As for B31, binding was characterised by a dissociation constant (Kd) of 340 nM.
Still for that read-out and setting: then B32, with 630 nM; and B33, with 130 nM; and B34, with 290 nM.
B35 displayed a Kd of 950 nM.
B36: the affinity, expressed as Kd, was 1500 nM.
Still for that read-out and setting: then B37, with 840 nM; and B38, with 3700 nM.
Consider B39, for which the Kd worked out at 2500 nM.
As for B40, the Kd turned out to be 520 nM.
In the case of B41, the Kd stood at 370 nM.
Molecule B42 came in with a Kd of 1900 nM.
For B43, the Kd is 590 nM.
With B44, the equilibrium dissociation constant (Kd) was 830 nM.
